Test results published in CN113444176A (WUHAN RENFU INNOVATIVE DRUG R&D CENTER CO LTD; HUMANWELL …, dated 2021).
Where two headings read alike, the source gives them in different places.

Assays:
[1] = molecular target: T1, 重组人NGF蛋白 (recombinant human nerve growth factor) (human, UniProt P01138 122-241); assay: SPR, Biacore 8K, NGF coupled to CM5 chip, antibody as analyte, 1:1 binding model
T1 construct: also called 重组NGF蛋白; 重组NGF抗原

[2] = molecular target: T1, 重组人NGF蛋白 (recombinant human nerve …); assay: as above; remark: listed apart in the source
重组BDNF (脑源性神经营养因子) [3] = molecular target: T2, 重组BDNF (脑源性神经营养因子) (Helarctos malayanus (Malayan sun bear) …, UniProt O18753 129-247); assay: competition ELISA: coated NGF, antibody preincubated with recombinant BDNF
T2 sequence: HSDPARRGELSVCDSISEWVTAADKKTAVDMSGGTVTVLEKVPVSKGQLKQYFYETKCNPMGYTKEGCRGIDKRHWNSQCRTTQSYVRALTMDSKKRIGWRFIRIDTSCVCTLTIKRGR

重组NT4 (神经营养因子4) = molecular target: T3, 重组NT4 (神经营养因子4) (Homo sapiens (Human), UniProt P34130 81-210); assay: SPR, Biacore 8K, CM5 chip, antibody as analyte
T3 sequence: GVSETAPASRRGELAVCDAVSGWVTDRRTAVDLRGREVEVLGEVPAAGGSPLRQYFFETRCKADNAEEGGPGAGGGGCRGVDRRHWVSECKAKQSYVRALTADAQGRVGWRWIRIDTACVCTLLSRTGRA

重组NT3 (神经营养因子3) = molecular target: T4, 重组NT3 (神经营养因子3) (Rattus norvegicus (Rat), UniProt P18280 140-258); assay: SPR, Biacore 8K, CM5 chip, antibody as analyte
T4 sequence: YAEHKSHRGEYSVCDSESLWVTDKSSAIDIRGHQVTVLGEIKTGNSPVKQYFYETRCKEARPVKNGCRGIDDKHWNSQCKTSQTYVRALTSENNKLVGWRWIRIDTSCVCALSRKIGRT

重组BDNF (脑源性神经营养因子) [4] = molecular target: T2, 重组BDNF (脑源性神经营养因子); assay: SPR, Biacore 8K, CM5 chip, antibody as analyte

T1 sequence (P01138 122-241 limits assumed): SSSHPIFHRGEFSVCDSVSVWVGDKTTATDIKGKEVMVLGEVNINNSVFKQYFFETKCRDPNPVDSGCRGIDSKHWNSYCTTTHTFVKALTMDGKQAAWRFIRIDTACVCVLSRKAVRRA

Binder | Kd [1] [nM] | koff [1] [s⁻¹] | kon [1] [M⁻¹ s⁻¹] | Kd [2] [nM] | koff [2] [s⁻¹] | kon [2] [M⁻¹ s⁻¹] | binding result (重组BDNF (脑源性神经营养因子) [3]) | binding result (重组NT4 (神经营养因子4)) | binding result (重组NT3 (神经营养因子3)) | binding result (重组BDNF (脑源性神经营养因子) [4])
鼠源抗体F3 (anti-NGF mouse monoclonal antibody F3) (antibody, mouse IgG1, kappa, V domains shown, Hybridoma antibody; also called 杂交瘤单抗F3) VH: EVMLVESGGDLVKPGGSLKLSCAASGFTFSRYAMSWVRQTPEKRLEWVATISSGGSYTYYPDSVKGRFTISRDNAKNTLYLQMSSLRSEDTAMFYCARHGEFYGTTFDVHYFDYWGQGTTLTVSS VL: YIVLTQSPASLAVSLGQRATISCRASESVDSYGNSFMHWYQQKPGQPPKLLIYLASNLESGVPARFSGSGSRTDFTLTIDPVEADDAATYYCQQNNEDPLTFGTGTKLELKR | 0.335 | 0.000121 | 363000 | – | – | – | – | – | – | –
人源化抗NGF抗体Ab01 (antibody, human IgG4 S228P, kappa, V domains shown, Humanised from F3; human IgG4 (S228P) heavy constant region and human kappa constant region; expressed in CHO cells) VH: EVQLVESGGGLVKPGGSLRLSCAASGFTFSRYAMSWVRQAPGKGLEWVSTISSGGSYTYYPDSVKGRFTISRDNAKNSLYLQMNSLRAEDTAVYYCARHGEFYGTTFDVHYFDYWGQGTLVTVSS VL: AIQLTQSPSSLSASVGDRVTITCRASESVDSYGNSFMHWYQQKPGKAPKLLIYLASNLESGVPSRFSGSGSGTDFTLTISSLQPEDFATYYCQQNNEDPLTFGGGTKVEIKR | – | – | – | 0.151 | 4.35e-05 | 287000 | no binding | no binding | no binding | –
人源化抗NGF抗体Ab02 (antibody, human IgG4 S228P, kappa, V domains shown, Humanised from F3; human IgG4 (S228P) heavy constant region and human kappa constant region; expressed in CHO cells) VH: EVQLVESGGGLVQPGGSLRLSCAASGFTFSRYAMSWVRQAPGKGLVWVSTISSGGSYTYYPDSVKGRFTISRDNAKNTLYLQMNSLRAEDTAVYYCARHGEFYGTTFDVHYFDYWGQGTLVTVSS VL: EIVLTQSPATLSLSPGERATLSCRASESVDSYGNSFMHWYQQKPGQAPRLLIYLASNLESGIPDRFSGSGSGTDFTLTISRLEPEDFAVYYCQQNNEDPLTFGGGTKVEIKR | – | – | – | 0.137 | 4.02e-05 | 294000 | – | no binding | no binding | no binding
人源化抗NGF抗体Ab03 (antibody, human IgG4 S228P, kappa, V domains shown, Humanised from F3; human IgG4 (S228P) heavy constant region and human kappa constant region; expressed in CHO cells) VH: EVQLVESGGGLVQPGGSLRLSCAASGFTFSRYAMSWVRQAPGKGLEWVSTISSGGSYTYYPDSVKGRFTISRDNAKNSLYLQMNSLRAEDTAVYYCARHGEFYGTTFDVHYFDYWGQGTLVTVSS VL: EIVLTQSPATLSLSPGERATLSCRASESVDSYGNSFMHWYQQKPGQAPRLLIYLASNLESGIPARFSGSGSGTDFTLTISSLEPEDFAVYYCQQNNEDPLTFGGGTKVEIKR | – | – | – | 0.0918 | 2.78e-05 | 303000 | – | no binding | no binding | no binding
鼠源抗体G9 (anti-NGF mouse monoclonal antibody G9) (antibody, mouse IgG1, kappa, V domains shown, Hybridoma antibody; also called 杂交瘤单抗G9) VH: EVQLQQSGTVLARPGTSVRMSCKASGYTFTSYWMHWIKQRPGQGLEWIGAIYPGNSDTSYTQKFKGKAKLTAVTSTSTAYMELSSLTNEDSAVYYCTTPYGYDEDWYFNVWGAGTTVTVPS VL: NIVMTQSPKSMSMSVGERVTLSCKASENVGTYVSWYQQKPEQPPKLLIYGASNRYTGVPDRFTGCGSATDFTLTISSVQAEDLADYHCGQSYSYPLTFGAGTKLELKR | 1.29 | 0.000283 | 219000 | – | – | – | – | – | – | –
